{
  "source": "patent US9308238B2",
  "about": "“Compositions and methods for modulating EMT and uses thereof” (Whitehead Institute for Biomedical Research, priority 2010, dated 2016)",
  "assay_type_in_all_cases": "cell-based, human",
  "key": {"HMLE^24+ cells": {"test_system": "HMLE^24+ cells", "experiment": "RT-PCR / immunoblot of EMT markers and EMT-TFs in HMLE^24+ cells", "procedure": "FIGS. 5A-5H. Concomitant stimulation of Wnt and TGF-beta pathways allows HMLE^24+ cells to enter into a mesenchymal and SC-like state. (FIG. 5A) RT-PCR: N-Cadherin, Zeb1 and Zeb2, L32 was loading control, n=3. Prior RNA isolation, HMLE^24+-shGFP or -shSFRP1 (stable knockdown of SFRP1, FIG. 12A) cells were treated for 3 days with daily doses of indicated factors: anti-DKK1 antibody (10 μg/ml), anti-E-Cadherin antibody (1 μg/ml), TGF-beta 1 (5 ng/ml), Wnt5a (250 ng/ml), (FIG. 5B) Brightfield microscopy: images of control, TGF-beta- and iEMT-cocktail treated HMLE^24+ cells after 14 days of treatment as indicated (see also FIG. 12D). (FIG. 5C) RT-PCR: Zeb1, Zeb2, E-Cadherin and N-Cadherin, L32 was loading control, n=3. After 14 day treatment, cells were expanded in absence of further stimulation for 4 passages. […] (FIG. 5G) Lung metastasis: cells expanded for 8 passages after cessation of treatment as described in (C) were transformed with RAS; 1.0×10^5 cells were injected into the mammary fat pads of mice; GFP-labeled metastases on the surface of the lungs were quantified; *control vs. all other groups, p<0.05, n=5 mice/group. […]\nImmunoblots. Protein was extracted with RIPA lysis buffer and concentration determined by the Lowry assay (Biorad). […]"}, "luminal MECs": {"test_system": "luminal MECs", "experiment": "Mammosphere assay, primary luminal cells after pre-treatment", "details": "5-day treatment", "source_text": "(§1) FIGS. 7A-7G. Migratory and self-renewal properties in primary MECs: inhibition and induction. (FIG. 7A) Mammosphere Assay: microscopy images of mammospheres and quantification of mammosphere formation by purified basal, luminal and unsorted MEC populations. Primary spheres were allowed to form over a period of 7 days, dissociated and seeded for secondary sphere formation, n(mammosphere)/1000 cells, n=48, (FIG. 7B) Migration Assay: microscopy images of migrated cells in Boyden Chambers and quantification, n=6. (FIG. 7C) Mammosphere Assay: basal cells were seeded into assay after a 5 day pre-treatment with TGF-beta inhibitors A83-01 and […] (SB43, both inhibitors at 10 μM) as well as recombinant SFRP1 (1 μg/ml), n(mammospheres)/1000 cells, n=6. (FIG. 7D) Migration Assay: basal cells were seeded into migration assays treated after 5 day pre-treatment as described in (C), n=24. (FIG. 7E) Mammosphere Assay: luminal cells were seeded into the assay following a 5 day pre-treatment with TGF-beta 1 (5 ng/ml), Wnt5a (250 ng/ml), anti-E-Cadherin antibody (1 μg/ml) plus anti-DKK1 antibody (10 μg/ml), and a cocktail of all factors added together (iEMT-II), n(mammospheres)/1000 cells, n=24. (FIG. 7F) Migration Assay: luminal cells were seeded into Boyden Chambers following a 5 day pre-treatment as described in (E), n=6. […]"}, "MSP cells": {"test_system": "MSP cells", "experiment": "Mammosphere assay, MSP cells", "procedure": "FIGS. 3A-3E. Autocrine Signaling controls migration and mammosphere formation.\n(§2) Mammosphere and tumorsphere assay. Assays were performed as previously described with modifications (Dontu et al., 2003): 1000 cells/well were seeded in 96-well ultra-low adhesion plates (Corning) in MEGM medium containing 1.3% methylcellulose (Stem Cell Technologies) supplemented with 20 ng/ml EGF, 10 ng/ml bFGF (both Sigma) and B27 (Gibco). Primary spheres were dissociated by trypsinization and replated for secondary sphere formation after a period of 5-7 days."}, "basal MECs": {"test_system": "basal MECs", "experiment": "Mammosphere assay, primary basal cells after pre-treatment", "details": "5 day pre-treatment, assay without further treatment", "source_text": "as §1"}, "HTwist and MSP cells": {"test_system": "HTwist and MSP cells", "experiment": "Mammosphere assay, HTwist and MSP cells", "procedure": "FIGS. 10A-10E. […] (FIG. 10E) Mammosphere Assay: HTwist and MSP were treated daily during mammosphere formation (5 days) with BMP4 (0.5 μg/ml), SB431542 (10 μM) or a combination of both, n(mammospheres)/1000 cells, n=6.\nas §2"}, "[1]": {"details": "added daily for 5 days (FIG. 3D)"}},
  "data": [
    {"molecule": "TGF-beta 1: recombinant TGF-beta 1 protein, used at 5 ng/ml", "values": [
      {"measurement": "induction of N-Cadherin, Zeb1 or Zeb2", "setting": "HMLE^24+ cells; 3 days treatment", "result": "did not result in a significant induction"},
      {"measurement": "E-/N-Cadherin expression", "setting": "HMLE^24+ cells; 14 day treatment, then expanded without stimulation", "result": "marginal upregulation of N-Cadherin"},
      {"measurement": "increase in mammosphere-forming cells / efficiency", "setting": "luminal MECs", "result": 3, "unit": "fold"}
    ]},
    {"molecule": "SFRP1: Recombinant human SFRP1 protein (R&D Systems), secreted decoy receptor binding canonical and non-canonical Wnt ligands (protein, UniProt Q8N474 32-314, looked up) Secreted frizzled-related …: SEYDYVSFQSDIGPYQSGRFYTKPPQCVDIPADLRLCHNVGYKKMVLPNLLEHETMAEVKQQASSWVPLLNKNCHAGTQVFLCSLFAPVCLDRPIYPCRWLCEAVRDSCEPVMQFFGFYWPEMLKCDKFPEGDVCIAMTPPNATEASKPQGTTVCPPCDNELKSEAIIEHLCASEFALRMKIKEVKKENGDKKIVPKKKKPLKLGPIKKKDLKKLVLYLKNGADCPCHQLDNLSHHFLIMGRKVKSQYLLTAIHKWDKKNKEFKNFMKKMKNHECPTFQSVFK", "values": [
      {"measurement": "reduction of primary mammosphere number", "setting": "MSP cells; [1]", "result": 40, "unit": "%"},
      {"measurement": "reduction of secondary sphere formation", "setting": "MSP cells; treated during primary sphere formation only", "result": 80, "unit": "%"},
      {"measurement": "reduction of mammosphere formation", "setting": "basal MECs", "result": "80-90%"}
    ]},
    {"molecule": "BMP4: Recombinant BMP4 protein obtained from Stemgent (protein, UniProt P12644 293-408, looked up) Bone morphogenetic protein 4: SPKHHSQRARKKNKNCRRHSLYVDFSDVGWNDWIVAPPGYQAFYCHGDCPFPLADHLNSTNHAIVQTLVNSVNSSIPKACCVPTELSAISMLYLDEYDKVVLKNYQEMVVEGCGCR", "values": [
      {"measurement": "reduction of primary mammosphere formation", "setting": "HTwist and MSP cells; [1]", "result": 60, "unit": "%"},
      {"measurement": "reduction of secondary sphere formation", "setting": "HTwist and MSP cells; both cell lines, treated during primary sphere formation only", "result": 90, "unit": "%"}
    ]}
  ]
}
